{"source": "patent JP2008232916A", "key": {"[1]": {"target": "T1, 配列番号2のアルファヘリカルペプチド (second helix peptide), displayed on 15 nm gold particles", "T1 sequence (peptide)": "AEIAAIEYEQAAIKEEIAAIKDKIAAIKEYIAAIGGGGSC", "assay": "gold nanoparticle aggregation: 100 µl E. coli lysate supernatant added to 1 ml mixed SEQ 2 and SEQ 3 particles; the read-out belongs to the three-peptide complex"}, "[2]": {"target": "配列番号3のアルファヘリカルペプチド (third helix peptide), displayed on 15 nm gold particles", "assay": "gold nanoparticle aggregation: 100 µl E. coli lysate supernatant added to 1 ml mixed SEQ 2 and SEQ 3 particles; the read-out belongs to the three-peptide complex"}, "[3]": {"target": "T1, 配列番号2のアルファヘリカルペプチド (second helix peptide), displayed on 15 nm gold particles", "assay": "gold nanoparticle aggregation: 500 nM free SEQ 1 added to mixed SEQ 2 and SEQ 3 particles; the read-out belongs to the three-peptide complex"}, "[4]": {"target": "配列番号3のアルファヘリカルペプチド (third helix peptide), displayed on 15 nm gold particles", "assay": "gold nanoparticle aggregation: 500 nM free SEQ 1 added to mixed SEQ 2 and SEQ 3 particles; the read-out belongs to the three-peptide complex"}, "[5]": {"target": "T2, 配列番号16のアルファヘリカルペプチド (peptide containing the second helix peptide of the heterodimer), displayed on 15 nm gold particles", "T2 sequence (peptide)": "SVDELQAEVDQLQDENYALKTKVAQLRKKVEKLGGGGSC", "assay": "gold nanoparticle aggregation: 500 nM free SEQ 15 added to SEQ 16 particles, absorption spectrum"}}}
{"binder": "アルカリフォスファターゼ(配列番号5)と配列番号1のアルファヘリックスとの融合ペプチド(配列番号8) (enzyme) RTPEMPVLENRAAQGDITAPGGARRLTGDQTAALRDSLSDKPAKNIILLIGDGMGDSEITAARNYAEGAGGFFKGIDALPLTGQYTHYALNKKTGKPDYVTDSAASATAWSTGVKTYNGALGVDIHEKDHPTILEMAKASGLATGNVSTAELQDATPAALVAHVTSRKCYGPSATSEKCPGNALEKGGKGSITEQLLNARADVTLGGGAKTFAETATAGEWQGKTLREQAQARGYQLVNDAASLNAVTEANQQKPLLGLFADGNMPVRWLGPKATYHGNIDKPAVTCTPNPQRNDSVPTLAQMTDKAIELLSKNEKGFFLQVEGASIDKQDHAANPCGQIGETVDLDEAVQRALEFAKKDGNTLVIVTADHAHASQIVAPDTKAPGLTQALNTKDGAVMVMSYGNSEEDSQEHTGSQLRIAAYGPHAANVVGLTDQTDLFYTMKAALGLKGGGSGGGSGGGSLVPRGSAEIAAIKYKQAAIKNEIAAIKQEIAAIEQMIAAI", "values": [{"measurement": "absorption maximum of the gold colloid after addition", "setting": "[1]", "value": 555, "unit": "nm"}, {"measurement": "absorption maximum of the gold colloid after addition", "setting": "[2]", "value": 555, "unit": "nm"}]}
{"binder": "AEIAAIKYKQAAIKNEIAAIKQEIAAIEQMIAAI", "note": "[配列番号1で示されるアルファヘリカルペプチド (first helix peptide of the heterotrimeric alpha-helical coiled coil)]", "values": [{"measurement": "absorption maximum of the gold colloid after addition (525 nm before)", "setting": "[3]", "value": 555, "unit": "nm"}, {"measurement": "absorption maximum of the gold colloid after addition (525 nm before)", "setting": "[4]", "value": 555, "unit": "nm"}]}
{"binder": "配列番号15で示されるペプチド (first helix peptide of a heterodimer, SEQ ID NO 13, fused in tandem to both ends of the linker SEQ ID NO 14) (peptide) peptide: TVAQLEEKVKTLRAQNYELKSRVQRLREQVAQLAGGGGSGGGGSGGGGSTVAQLEEKVKTLRAQNYELKSRVQRLREQVAQLA", "values": [{"measurement": "absorption maximum of the gold colloid after addition (about 525 nm before)", "setting": "[5]", "value": 550, "unit": "nm"}]}
